The text below walks through data of article PMC5460035 (Nature Communications, 2017).

The target in the test is T1, RUVBL2-His (human, UniProt Q9Y230 1-463).
T1 construct: RUVBL2, AAA+ ATPase; cDNA amplified from a Mammalian Gene Collection clone, cloned into pET-23a+; also called polyhistidine-tagged RUVBL2; source: E. coli One Shot BL21 Star DE3, purified (Ni-NTA agarose)
Kind of test: pull-down; 500 ng GST-tagged protein with 100 ng His-tagged protein and glutathione beads in 1 ml binding buffer (50 mM NaCl, 50 mM HEPES-KOH pH 7.6, 0.1% NP-40), 2 h at 4 °C; in presence of ATP, ADP or γ-S-ATP; immunoblot. To be noted: both partners purified.

T1 sequence (Q9Y230 whole entry): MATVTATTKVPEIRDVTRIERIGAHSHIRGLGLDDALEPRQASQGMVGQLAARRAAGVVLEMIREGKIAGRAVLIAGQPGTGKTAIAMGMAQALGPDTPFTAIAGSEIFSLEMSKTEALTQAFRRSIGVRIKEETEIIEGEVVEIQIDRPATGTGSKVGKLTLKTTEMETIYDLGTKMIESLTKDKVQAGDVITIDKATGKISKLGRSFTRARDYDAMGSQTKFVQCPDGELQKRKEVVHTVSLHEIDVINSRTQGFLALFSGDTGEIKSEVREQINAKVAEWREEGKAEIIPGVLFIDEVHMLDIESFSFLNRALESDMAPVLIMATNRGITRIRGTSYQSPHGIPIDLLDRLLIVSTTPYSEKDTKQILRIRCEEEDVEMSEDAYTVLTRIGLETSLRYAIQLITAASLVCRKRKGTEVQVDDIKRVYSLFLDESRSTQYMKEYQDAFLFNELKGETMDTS

B1: GST-ZNHIT2 (full-length) (natural protein, human, UniProt Q9UHR6 1-403, looked up)
chain: MEPAGPCGFCPAGEVQPARYTCPRCNAPYCSLRCYRTHGTCAENFYRDQVLGELRGCSAPPSRLASALRRLRQQRETEDEPGEAGLSSGPAPGGLSGLWERLAPGEKAAFERLLSRGEAGRLLPPWRPWWWNRGAGPQLLEELDNAPGSDAAELELAPARTPPDSVKDASAAEPAAAERVLGDVPGACTPVVPTRIPAIVSLSRGPVSPLVRFQLPNVLFAYAHTLALYHGGDDALLSDFCATLLGVSGALGAQQVFASAEEALQAAAHVLEAGEHPPGPLGTRGAMHEVARILLGEGPTNQKGYTLAALGDLAQTLGRARKQAVAREERDHLYRARKKCQFLLAWTNENEAALTPLALDCARAHQAHAVVAEEVAALTGELERLWGGPVPPAPRTLIEELPS
notes: ZNHIT2, human ZNHIT family member; cDNA amplified from a Mammalian Gene Collection clone, cloned into pGEX-4T-1; also called GST-tagged ZNHIT2; source: E. coli One Shot BL21 Star DE3, purified (Glutathione Sepharose 4B)
With B1, the binding result is “binds”.
